The values below come from PMC3547953.

The target of the assay is tumor necrosis factor-alpha (TNF-α) (UniProt P01375).
Chain of UniProt P01375 (P01375 77-233): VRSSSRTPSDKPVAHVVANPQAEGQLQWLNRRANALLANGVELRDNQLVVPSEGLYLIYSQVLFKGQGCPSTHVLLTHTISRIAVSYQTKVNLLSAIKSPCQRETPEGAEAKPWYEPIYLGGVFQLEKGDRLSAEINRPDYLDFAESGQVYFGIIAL

On to “anti-TNF-α antibody (ENBREL), a chimeric molecule combining the ligand-binding domain of the TNF-receptor 2 and the Fc-domain of human IgG1 (Fc fusion)”, for which the apoptosis (TUNEL, DNA strand breaks) of uninfected monocytes induced by added TNF-α, with anti-TNF-α mAb (ENBREL, 1 µg/ml) was found to be 50%.
